Residue numbers refer to the chain shown, from its start. Names and notes keep the numbering of the source.

B1: Ic_S2_P3E.1_K3.1_C3.1_H3.1_A3.1_[T5G]_[A6C]_F3.1_[T7G]_[A8T]_T3.1 (ssRNA)
RNA: UUUGAUUAAUAUGAUAUCGUUCUUUCUUGUAGCGUUUCUUUCUCGAUAUCAUAUUAAUCUUU
B2: Ic_S2_P3E.1_K3.1_C3.1_H3.1_A3.1_[T5G]_[A6T]_F3.1_[T7C]_[A8G]_T3.1 (ssRNA)
RNA: B1 RNA with C33U, G34C, U35G
B3: Ic_S2_P3E.1_K3.1_C3.1_H3.1_A3.1_[T5G]_[A6T]_F3.1_[T7G]_[A8T]_T3.1 (ssRNA)
RNA: B1 RNA with C33U
B4: Ic_S2_P3E.1_K3.1_C3.1_H3.1_A3.1_[T5G]_[A6C]_F3.1_[T7A]_[A8G]_T3.1 (ssRNA)
RNA: B1 RNA with G34A, U35G
B5: Ic_S2_P3E.1_K3.1_C3.1_H3.1_A3.1_[T5G]_[A6C]_F3.1_[T7C]_[A8C]_T3.1 (ssRNA)
RNA: B1 RNA with G34C, U35C
B6: Ic_S2_P3E.1_K3.1_C3.1_H3.1_A3.1_[T5G]_[A6C]_F3.1_[T7C]_[A8T]_T3.1 (ssRNA)
RNA: B1 RNA with G34C
B7: Ic_S2_P3E.1_K3.1_C3.1_H3.1_A3.1_[T5G]_[A6C]_F3.1_[A8T]_T3.1 (ssRNA)
RNA: B1 RNA with G34U
B8: Ic_S2_P3E.1_K3.1_C3.1_H3.1_A3.1_[T5G]_[A6C]_F3.1_[A8G]_T3.1 (ssRNA)
RNA: B1 RNA with G34U, U35G
B9: Ic_S2_P3E.1_K3.1_C3.1_H3.1_A3.1_[T5G]_[A6C]_F3.1_[A8C]_T3.1 (ssRNA)
RNA: B1 RNA with G34U, U35C
B10: Ic_S2_P3E.1_K3.1_C3.1_H3.1_A3.1_[T5G]_[A6C]_F3.1_[T7A]_T3.1 (ssRNA)
RNA: B1 RNA with G34A, U35A
B11: Ic_S2_P3E.1_K3.1_C3.1_H3.1_A3.1_[T5G]_[A6T]_F3.1_[T7G]_[A8C]_T3.1 (ssRNA)
RNA: B1 RNA with C33U, U35C
B12: Ic_S2_P3E.1_K3.1_C3.1_H3.1_A3.1_[T5G]_[A6C]_F3.1_[T7C]_[A8G]_T3.1 (ssRNA)
RNA: B1 RNA with G34C, U35G

In the data set the target is T1, PUF4 RNA-binding domain (Saccharomyces cerevisiae, UniProt P25339 537-888).
T1 sequence: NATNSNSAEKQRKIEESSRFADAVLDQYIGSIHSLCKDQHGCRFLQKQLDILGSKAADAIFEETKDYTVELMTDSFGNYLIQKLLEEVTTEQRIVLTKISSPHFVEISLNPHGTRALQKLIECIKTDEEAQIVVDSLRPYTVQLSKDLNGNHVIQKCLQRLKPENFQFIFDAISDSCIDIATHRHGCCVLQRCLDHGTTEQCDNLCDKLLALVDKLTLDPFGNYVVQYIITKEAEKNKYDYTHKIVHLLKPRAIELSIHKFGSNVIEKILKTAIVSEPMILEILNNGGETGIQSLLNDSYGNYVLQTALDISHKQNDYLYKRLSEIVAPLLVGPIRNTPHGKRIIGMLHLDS
Description: Mg; RNA-MaP; 20 mM Na-HEPES pH 7.4, 30 mM KOAc, 0.75 mM MgCl2, 0.1% Tween-20, 5% glycerol, 0.1 mg/mL BSA, 2 mM DTT; 25 C; 0.0125-409.6 nM protein. To be noted: tags: N-His6-TEV cleaved; C-SNAP kept, Cy3B-labelled; label: tethered on chip by stalled RNA polymerase.
UCUCUUUGUAACUAUCUCUCUU (ssRNA) [Ic_S1_P5E.1_K5.1_C5.1_H5.1_A5.1_[T5A]_[T6C]_[A7T]_F5.1_[T8A]_[A10C]_T5.1] returned a Kd of 113 nM.
UCUCUUUGUAACUCAGUCUCUU (ssRNA) [Ic_S1_P5E.1_K5.1_C5.1_H5.1_A5.1_[T5A]_[T6C]_[A7T]_F5.1_[T8C]_[T9A]_[A10G]_T5.1]: the Kd turned out to be 175 nM. This Kd lies about 1.5-fold higher than the previous one.
In the case of UCUCUUUGUACUCUCUUCUCUU (ssRNA) [Ic_S1_P5E.1_K5.1_C5.1_H5.1_A5.1_[T5C]_[A7C]_F5.1_[T9C]_[A10T]_T5.1], binding was put at a Kd of 295 nM.
As for UCUCUUUGUAACCUUUUCUCUU (ssRNA) [Ic_S1_P5E.1_K5.1_C5.1_H5.1_A5.1_[T5A]_[T6C]_[A7C]_F5.1_[A10T]_T5.1], the Kd is 49.8 nM.
Regarding UCUCUUCGUAUUUAUCUCUU (ssRNA) [Ib_S1_P3E.1_K3.1_C3.1_H3.1_[T1C]_A3.1_[A6T]_F3.1_T3.1], the Kd is over 2300 nM.
In the case of UCUCUUUGUAUGGCUCUCUCUU (ssRNA) [Ic_S1_P5E.1_K5.1_C5.1_H5.1_A5.1_[T6G]_[A7G]_F5.1_[T8C]_[A10C]_T5.1] it was over 2300 nM; in that of UCUCUUUGUAACGAUGUCUCUU (ssRNA) [Ic_S1_P5E.1_K5.1_C5.1_H5.1_A5.1_[T5A]_[T6C]_[A7G]_F5.1_[T8A]_[A10G]_T5.1], 1000 nM.
In the case of UCUCUUUGUAUAUAAUUCUCUU (ssRNA) [Ic_S1_P5E.1_K5.1_C5.1_H5.1_A5.1_[T6A]_[A7T]_F5.1_[T8A]_[T9A]_[A10T]_T5.1] it was 4.21 nM.
UCUCUUUCUAAAUAUCUCUU (ssRNA) [Ib_S1_P3E.1_K3.1_C3.1_H3.1_[G2C]_A3.1_[T5A]_F3.1_T3.1]: the Kd is over 2300 nM.
In the case of UCUCUUUGUAUUCCUCUCUCUU (ssRNA) [Ic_S1_P5E.1_K5.1_C5.1_H5.1_A5.1_[A7C]_F5.1_[T8C]_[A10C]_T5.1] it was 132 nM; in that of UCUCUUUGUAUAUAUUUCUCUU (ssRNA) [Ic_S1_P5E.1_K5.1_C5.1_H5.1_A5.1_[T6A]_[A7T]_F5.1_[T8A]_[A10T]_T5.1], 7.35 nM.
In the case of UCUCUUUGUAUGUAAAUCUCUU (ssRNA) [Ic_S1_P5E.1_K5.1_C5.1_H5.1_A5.1_[T6G]_[A7T]_F5.1_[T8A]_[T9A]_T5.1] it was 92.9 nM.
UCUCUUUGUACAAUGGUCUCUU (ssRNA) [Ic_S1_P5E.1_K5.1_C5.1_H5.1_A5.1_[T5C]_[T6A]_F5.1_[T9G]_[A10G]_T5.1]: the affinity, expressed as Kd, was 12.5 nM.
For the molecule UCUCUUUGUACGCCCAUCUCUU (ssRNA) [Ic_S1_P5E.1_K5.1_C5.1_H5.1_A5.1_[T5C]_[T6G]_[A7C]_F5.1_[T8C]_[T9C]_T5.1], the Kd came out at 564 nM.
UCUCUUUGUAUGUCAUUCUCUU (ssRNA) [Ic_S1_P5E.1_K5.1_C5.1_H5.1_A5.1_[T6G]_[A7T]_F5.1_[T8C]_[T9A]_[A10T]_T5.1]: binding was put at a Kd of 297 nM.
As for UCUCUUUGUAUCAGCCUCUCUU (ssRNA) [Ic_S1_P5E.1_K5.1_C5.1_H5.1_A5.1_[T6C]_F5.1_[T8G]_[T9C]_[A10C]_T5.1], the affinity, expressed as Kd, was 918 nM.
For the molecule UCUCUUUGUACUCUAUUCUCUU (ssRNA) [Ic_S1_P5E.1_K5.1_C5.1_H5.1_A5.1_[T5C]_[A7C]_F5.1_[T9A]_[A10T]_T5.1], the Kd is 3.85 nM. Against the preceding molecule, the Kd is about 240-fold lower.
As to UCUCUUUGUAUCCAGUUCUCUU (ssRNA) [Ic_S1_P5E.1_K5.1_C5.1_H5.1_A5.1_[T6C]_[A7C]_F5.1_[T8A]_[T9G]_[A10T]_T5.1], the Kd is 1040 nM.
UCUCUUUGUAGCCUUUUCUCUU (ssRNA) [Ic_S1_P5E.1_K5.1_C5.1_H5.1_A5.1_[T5G]_[T6C]_[A7C]_F5.1_[A10T]_T5.1] had a Kd of 470 nM.
As for UCUCUUUGUAAUGGUCUCUCUU (ssRNA) [Ic_S1_P5E.1_K5.1_C5.1_H5.1_A5.1_[T5A]_[A7G]_F5.1_[T8G]_[A10C]_T5.1], binding was put at a Kd of 1800 nM. Compared with the last molecule, the Kd is about 3.8-fold higher.
With UCUCUUUGUAACGUCUUCUCUU (ssRNA) [Ic_S1_P5E.1_K5.1_C5.1_H5.1_A5.1_[T5A]_[T6C]_[A7G]_F5.1_[T9C]_[A10T]_T5.1], the Kd was found to be 2100 nM.
As for B1, the Kd was determined as 163 nM. This Kd is about 13-fold lower than that of the molecule before.
In turn, B2 gave an equilibrium dissociation constant (Kd) of 436 nM.
Molecule B3 gave a dissociation constant (Kd) of 105 nM.
Take B4: binding was characterised by a dissociation constant (Kd) of 754 nM.
On to B5, for which the Kd was 526 nM.
Turning to B6, binding was characterised by a dissociation constant (Kd) of 63.9 nM.
The same measure for B7: 18.6 nM; for B8: 156 nM; for B9: 181 nM.
For the molecule B10, the Kd was found to be 506 nM.
In the case of B11 it was 390 nM.
The molecule B12 returned a Kd of 996 nM.
UCUCUUUGUACUGCAUUCUCUU (ssRNA) [Ic_S1_P5E.1_K5.1_C5.1_H5.1_A5.1_[T5C]_[A7G]_F5.1_[T8C]_[T9A]_[A10T]_T5.1] gave a Kd of 534 nM.
In turn, UCUCUUAGUAUGUAUCUCUU (ssRNA) [Ib_S1_P3E.1_K3.1_C3.1_H3.1_[T1A]_A3.1_[A6G]_F3.1_T3.1] returned a Kd of 381 nM.
The molecule UCUCUUUGUACCCCGGUCUCUU (ssRNA) [Ic_S1_P5E.1_K5.1_C5.1_H5.1_A5.1_[T5C]_[T6C]_[A7C]_F5.1_[T8C]_[T9G]_[A10G]_T5.1] had a Kd of over 2300 nM.
The same measure for UCUCUUUGUACAUUCGUCUCUU (ssRNA) [Ic_S1_P5E.1_K5.1_C5.1_H5.1_A5.1_[T5C]_[T6A]_[A7T]_F5.1_[T9C]_[A10G]_T5.1]: 9.95 nM.
UCUCUUUGUAGUAAUUUCUCUU (ssRNA) [Ic_S1_P5E.1_K5.1_C5.1_H5.1_A5.1_[T5G]_F5.1_[T8A]_[A10T]_T5.1]: the Kd came out at 1270 nM.
In turn, UCUCUUUGUACACACCUCUCUU (ssRNA) [Ic_S1_P5E.1_K5.1_C5.1_H5.1_A5.1_[T5C]_[T6A]_[A7C]_F5.1_[T8A]_[T9C]_[A10C]_T5.1] returned a Kd of 76.8 nM.
Molecule UCUCUUUGUAAAUUAAUCUCUU (ssRNA) [Ic_S1_P5E.1_K5.1_C5.1_H5.1_A5.1_[T5A]_[T6A]_[A7T]_F5.1_[T9A]_T5.1] yielded a Kd of 1.57 nM.
The same measure for UCUCUUAGUAUCUAUCUCUU (ssRNA) [Ib_S1_P3E.1_K3.1_C3.1_H3.1_[T1A]_A3.1_[A6C]_F3.1_T3.1]: over 2300 nM.
In the case of UCUCUUUGUAUAUGAAUCUCUU (ssRNA) [Ic_S1_P5E.1_K5.1_C5.1_H5.1_A5.1_[T6A]_[A7T]_F5.1_[T8G]_[T9A]_T5.1] it was 19.4 nM.
Turning to UCUCUUUGUAUAUCCUUCUCUU (ssRNA) [Ic_S1_P5E.1_K5.1_C5.1_H5.1_A5.1_[T6A]_[A7T]_F5.1_[T8C]_[T9C]_[A10T]_T5.1], binding was put at a Kd of 24 nM.
In turn, UCUCUUUGUAGCCCAUUCUCUU (ssRNA) [Ic_S1_P5E.1_K5.1_C5.1_H5.1_A5.1_[T5G]_[T6C]_[A7C]_F5.1_[T8C]_[T9A]_[A10T]_T5.1] registered a Kd of 1530 nM.

The term Kd denotes the free concentration of one partner at which half of the binding sites on the other are occupied at equilibrium, for simple one-to-one binding. A low value points to tighter binding.

The record behind these values is paper PMC9352680, “A comprehensive thermodynamic model for RNA binding by the Saccharomyces cerevisiae Pumilio protein PUF4”.
